Source: US20230227838A1, “ENHANCED CELL SURVIVAL AGAINST BIOTIC AND ABIOTIC STRESSES THROUGH SALICYLICK ACID-INDUCED NPR1 CONDENSATES” (priority 2020, published 2023)

Biological target: sim3-GFP (Arabidopsis thaliana) (UniProt P93002)
Experiment: sim3-GFP IP, LC-MS/MS

Chain of sim3-GFP (Arabidopsis thaliana) (P93002 other isoform, or with tags, fused parts or gaps): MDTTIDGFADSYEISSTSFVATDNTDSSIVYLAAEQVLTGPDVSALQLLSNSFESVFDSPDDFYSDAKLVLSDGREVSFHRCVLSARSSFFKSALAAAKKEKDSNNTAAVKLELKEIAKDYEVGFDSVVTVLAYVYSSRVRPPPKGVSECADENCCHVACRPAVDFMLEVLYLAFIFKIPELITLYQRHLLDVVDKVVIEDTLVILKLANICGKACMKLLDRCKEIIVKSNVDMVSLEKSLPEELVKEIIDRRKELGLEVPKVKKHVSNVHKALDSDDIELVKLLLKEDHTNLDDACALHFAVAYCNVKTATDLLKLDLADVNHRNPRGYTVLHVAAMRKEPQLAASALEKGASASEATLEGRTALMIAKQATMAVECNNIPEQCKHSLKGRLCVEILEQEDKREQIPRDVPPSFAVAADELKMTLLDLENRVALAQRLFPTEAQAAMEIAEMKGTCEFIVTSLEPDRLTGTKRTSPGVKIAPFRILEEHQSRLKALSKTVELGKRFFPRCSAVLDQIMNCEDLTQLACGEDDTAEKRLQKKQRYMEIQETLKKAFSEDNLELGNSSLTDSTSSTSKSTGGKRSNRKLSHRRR
Chain of RNA helicase family protein (AT1G27900) (Q93Y16 2-700): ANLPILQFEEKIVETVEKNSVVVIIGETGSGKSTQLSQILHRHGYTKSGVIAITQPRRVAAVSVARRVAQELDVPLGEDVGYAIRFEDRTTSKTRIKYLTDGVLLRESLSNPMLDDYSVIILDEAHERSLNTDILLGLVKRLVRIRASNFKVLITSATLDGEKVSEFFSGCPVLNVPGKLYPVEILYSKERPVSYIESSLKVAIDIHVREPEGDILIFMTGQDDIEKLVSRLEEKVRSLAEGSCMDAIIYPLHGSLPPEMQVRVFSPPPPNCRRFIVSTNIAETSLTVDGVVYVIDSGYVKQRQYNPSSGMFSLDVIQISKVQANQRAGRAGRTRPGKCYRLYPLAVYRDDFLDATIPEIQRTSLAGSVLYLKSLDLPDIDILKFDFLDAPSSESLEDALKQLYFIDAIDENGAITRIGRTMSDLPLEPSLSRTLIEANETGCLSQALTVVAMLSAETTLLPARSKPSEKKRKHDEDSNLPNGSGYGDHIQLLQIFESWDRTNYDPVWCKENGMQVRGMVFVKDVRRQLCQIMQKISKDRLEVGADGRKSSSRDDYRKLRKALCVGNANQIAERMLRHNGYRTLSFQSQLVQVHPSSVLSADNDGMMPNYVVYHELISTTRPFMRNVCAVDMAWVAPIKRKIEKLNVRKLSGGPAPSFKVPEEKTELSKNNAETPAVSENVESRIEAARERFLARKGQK
Chain of ROC3, rotamase CYP 3 (Q38900 whole entry): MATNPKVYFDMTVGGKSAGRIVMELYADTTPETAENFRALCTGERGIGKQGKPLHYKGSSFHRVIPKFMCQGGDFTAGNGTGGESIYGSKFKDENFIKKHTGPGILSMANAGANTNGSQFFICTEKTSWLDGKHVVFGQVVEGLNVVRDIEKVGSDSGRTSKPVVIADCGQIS
Chain of EDA10 (Q9LPC5 2-1750): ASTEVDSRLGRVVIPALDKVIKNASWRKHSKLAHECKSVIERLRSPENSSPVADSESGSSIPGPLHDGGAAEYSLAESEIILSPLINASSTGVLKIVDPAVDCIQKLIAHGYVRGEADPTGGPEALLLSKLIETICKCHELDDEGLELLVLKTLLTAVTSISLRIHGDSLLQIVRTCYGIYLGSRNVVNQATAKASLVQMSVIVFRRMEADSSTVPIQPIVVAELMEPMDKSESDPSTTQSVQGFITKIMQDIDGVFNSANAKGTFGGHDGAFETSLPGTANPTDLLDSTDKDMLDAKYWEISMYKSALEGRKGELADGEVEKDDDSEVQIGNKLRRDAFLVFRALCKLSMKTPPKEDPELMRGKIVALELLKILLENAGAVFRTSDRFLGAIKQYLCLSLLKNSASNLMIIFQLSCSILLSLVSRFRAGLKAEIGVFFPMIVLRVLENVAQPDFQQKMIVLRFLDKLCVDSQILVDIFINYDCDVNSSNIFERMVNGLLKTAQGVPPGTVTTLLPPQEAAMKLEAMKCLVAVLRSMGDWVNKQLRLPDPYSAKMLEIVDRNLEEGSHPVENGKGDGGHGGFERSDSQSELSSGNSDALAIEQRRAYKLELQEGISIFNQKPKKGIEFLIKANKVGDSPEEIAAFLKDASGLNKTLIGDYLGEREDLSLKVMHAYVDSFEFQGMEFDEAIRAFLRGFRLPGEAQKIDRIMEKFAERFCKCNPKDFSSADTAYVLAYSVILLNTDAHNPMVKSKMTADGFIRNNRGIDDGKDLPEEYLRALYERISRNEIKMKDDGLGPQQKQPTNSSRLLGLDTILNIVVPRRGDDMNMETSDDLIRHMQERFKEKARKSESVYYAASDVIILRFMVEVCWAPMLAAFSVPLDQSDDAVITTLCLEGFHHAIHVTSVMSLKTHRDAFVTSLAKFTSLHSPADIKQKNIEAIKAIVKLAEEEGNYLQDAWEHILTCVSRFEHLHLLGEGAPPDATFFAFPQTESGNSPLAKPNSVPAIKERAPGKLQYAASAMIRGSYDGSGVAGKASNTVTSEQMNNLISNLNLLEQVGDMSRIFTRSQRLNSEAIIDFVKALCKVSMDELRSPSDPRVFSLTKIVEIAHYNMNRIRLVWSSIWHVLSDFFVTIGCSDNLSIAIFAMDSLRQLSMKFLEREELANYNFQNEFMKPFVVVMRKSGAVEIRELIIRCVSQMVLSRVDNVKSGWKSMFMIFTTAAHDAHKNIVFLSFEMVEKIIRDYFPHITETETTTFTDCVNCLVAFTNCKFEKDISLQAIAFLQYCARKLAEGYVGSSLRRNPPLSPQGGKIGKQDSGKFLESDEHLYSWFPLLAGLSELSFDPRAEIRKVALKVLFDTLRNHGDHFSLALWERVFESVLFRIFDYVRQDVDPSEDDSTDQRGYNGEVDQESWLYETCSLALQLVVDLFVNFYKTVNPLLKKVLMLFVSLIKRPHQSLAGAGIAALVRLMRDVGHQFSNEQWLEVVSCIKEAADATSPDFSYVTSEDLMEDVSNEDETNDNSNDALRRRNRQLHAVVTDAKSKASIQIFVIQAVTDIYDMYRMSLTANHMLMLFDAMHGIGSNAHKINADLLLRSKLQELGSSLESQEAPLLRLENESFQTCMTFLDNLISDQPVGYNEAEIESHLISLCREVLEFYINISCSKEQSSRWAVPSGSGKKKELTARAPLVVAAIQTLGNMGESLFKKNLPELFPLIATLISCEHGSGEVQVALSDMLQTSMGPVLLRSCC
Chain of CYP51, CYTOCHROME P450 51G1 (Q9SAA9 whole entry): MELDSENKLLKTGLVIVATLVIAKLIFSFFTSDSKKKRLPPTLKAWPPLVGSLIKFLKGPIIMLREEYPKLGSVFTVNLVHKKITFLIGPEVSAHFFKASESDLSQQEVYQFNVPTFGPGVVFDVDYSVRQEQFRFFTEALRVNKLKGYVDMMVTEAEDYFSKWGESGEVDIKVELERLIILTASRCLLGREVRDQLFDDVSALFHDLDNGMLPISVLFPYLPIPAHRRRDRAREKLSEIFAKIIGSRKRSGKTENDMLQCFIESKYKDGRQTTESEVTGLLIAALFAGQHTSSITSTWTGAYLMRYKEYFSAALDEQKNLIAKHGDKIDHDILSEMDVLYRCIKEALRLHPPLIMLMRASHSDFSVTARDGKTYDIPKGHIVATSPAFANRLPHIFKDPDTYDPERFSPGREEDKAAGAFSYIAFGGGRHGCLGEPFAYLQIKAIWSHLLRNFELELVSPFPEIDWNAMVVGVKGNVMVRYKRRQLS
Chain of ATMDAR2, Pyridine nucleotide-disulphide oxidoreductase family protein (Q93WJ8 whole entry): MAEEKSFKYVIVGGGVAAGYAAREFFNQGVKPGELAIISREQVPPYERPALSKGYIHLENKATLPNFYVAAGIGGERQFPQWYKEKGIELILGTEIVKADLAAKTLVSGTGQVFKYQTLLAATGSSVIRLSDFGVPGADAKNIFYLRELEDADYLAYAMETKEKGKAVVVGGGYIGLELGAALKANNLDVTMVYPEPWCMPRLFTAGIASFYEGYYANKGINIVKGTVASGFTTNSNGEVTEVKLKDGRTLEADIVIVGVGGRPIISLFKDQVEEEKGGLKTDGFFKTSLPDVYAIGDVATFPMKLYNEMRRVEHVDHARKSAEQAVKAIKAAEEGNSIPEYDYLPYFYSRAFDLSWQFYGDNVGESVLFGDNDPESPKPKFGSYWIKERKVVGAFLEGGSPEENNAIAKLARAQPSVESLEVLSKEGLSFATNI
Chain of PTEN 2 (Q9LT75 whole entry): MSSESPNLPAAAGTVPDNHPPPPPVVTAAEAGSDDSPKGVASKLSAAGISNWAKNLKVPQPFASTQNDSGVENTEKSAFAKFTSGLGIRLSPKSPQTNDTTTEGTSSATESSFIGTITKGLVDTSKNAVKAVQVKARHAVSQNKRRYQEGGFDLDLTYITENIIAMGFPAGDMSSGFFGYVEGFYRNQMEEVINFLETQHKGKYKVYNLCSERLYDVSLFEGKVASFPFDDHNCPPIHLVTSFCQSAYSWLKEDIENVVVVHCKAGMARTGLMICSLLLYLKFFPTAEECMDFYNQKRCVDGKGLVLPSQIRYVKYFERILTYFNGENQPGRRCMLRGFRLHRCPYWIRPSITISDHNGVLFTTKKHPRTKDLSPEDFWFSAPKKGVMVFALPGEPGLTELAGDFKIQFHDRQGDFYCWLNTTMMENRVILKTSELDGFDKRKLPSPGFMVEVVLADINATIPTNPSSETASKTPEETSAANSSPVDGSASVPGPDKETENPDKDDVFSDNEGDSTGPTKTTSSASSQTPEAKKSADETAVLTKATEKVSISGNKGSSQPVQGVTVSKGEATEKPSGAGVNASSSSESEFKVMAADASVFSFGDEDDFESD
Chain of NAD(P)-binding Rossmann-fold superfamily protein (AT2G29320) (Q9ZW15 whole entry): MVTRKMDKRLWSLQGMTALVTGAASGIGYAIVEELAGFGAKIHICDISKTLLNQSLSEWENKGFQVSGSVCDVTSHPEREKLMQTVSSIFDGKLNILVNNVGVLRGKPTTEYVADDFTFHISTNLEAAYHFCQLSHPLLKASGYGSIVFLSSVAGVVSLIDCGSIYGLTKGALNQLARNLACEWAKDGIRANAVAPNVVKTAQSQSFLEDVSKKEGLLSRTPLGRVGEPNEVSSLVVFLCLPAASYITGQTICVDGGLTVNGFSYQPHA

Normalized Fold Change: SA vs Mock | Molecule
5810 fold | SCPL27, serine carboxypeptidase-like 27
6.35 fold | P-loop containing nucleoside triphosphate hydrolases superfamily protein (AT3G28510)
709 fold | SIRANBP, Pleckstrin homology (PH) domain superfamily protein
2.5 fold | ERF1-2, eukaryotic release factor 1-2
5.9 fold | PRH75, DEAD box RNA helicase (PRH75)
2.93 fold | SOUL-1, SOUL heme-binding family protein
7.18 fold | RNA helicase family protein (AT3G62310)
3.44 fold | S-adenosyl-L-methionine-dependent methyltransferases superfamily protein (AT2G32160)
5.05 fold | Leucine-rich repeat (LRR) family protein (AT5G45510)
2.83 fold | PCNA2, proliferating cell nuclear antigen 2
3.65 fold | PR1, pathogenesis-related gene 1 (from UniProt P33154 27-161)
703 fold | AT3G47630
2.09 fold | IMPA1, importin alpha isoform 1
2.58 fold | GSTU19, glutathione S-transferase TAU 19 (from UniProt Q9ZRW8 1-219)
3.23 fold | ATPAD4, PAD4, alpha/beta-Hydrolases superfamily protein (from UniProt Q9S745 1-541)
7.6 fold | Disease resistance protein (TIR-NBS class) (AT3G04210)
5.75 fold | ROC3, rotamase CYP 3
7.17 fold | P-loop containing nucleoside triphosphate hydrolases superfamily protein (AT2G28620)
2.22 fold | EDA10
2.42 fold | ATR4, CYP83B1, RED1, RNT1, SUR2, cytochrome P450, family 83, subfamily B, polypeptide 1 (from UniProt O65782 1-499)
2.8 fold | CYP51, CYTOCHROME P450 51G1
14.3 fold | NRP1, nodulin-related protein 1
9.4 fold | NPR3, NPR1-like protein 3 (from UniProt Q8L746 1-586)
5.26 fold | ATCNX1, CNX1, calnexin 1
2.16 fold | EFE, ethylene-forming enzyme
9.62 fold | P-loop containing nucleoside triphosphate hydrolases superfamily protein (AT3G28540)

Normalized Fold Change: SA vs Mock | Molecule
2.52 fold | DDB1A, damaged DNA binding protein 1A (from UniProt Q9M0V3 1-1088)
3400 fold | Transducin/WD40 repeat-like superfamily protein (AT3G50590)
10.2 fold | Disease resistance protein (TIR-NBS-LRR class) (AT5G41750)
5.17 fold | Disease resistance protein (TIR-NBS-LRR class) (AT4G19510)
3.18 fold | EDS1, enhanced disease susceptability
10.5 fold | AOAT2, GGT2, alanine-2-oxoglutarate aminotransferase 2
50.1 fold | SQE3, squalene epoxidase 3
8.98 fold | WAK4, wall associated kinase 4
2.24 fold | PTEN 2
2.33 fold | ATM1, myosin 1
3.1 fold | EDA39, calmodulin-binding family protein
16 fold | BCS1, cytochrome BC1 synthesis
2.2 fold | ATSPS4F, Sucrose-phosphate synthase family protein
86.4 fold | GDH1, glutamate dehydrogenase 1
2.75 fold | FUS11, Proteasome component (PCI) domain protein
5.46 fold | NAD(P)-binding Rossmann-fold superfamily protein (AT4G13180)
4790 fold | P-loop containing nucleoside triphosphate hydrolases superfamily protein (AT5G17760)
3.67 fold | Transducin/WD40 repeat-like superfamily protein (AT3G45620)
4.08 fold | SAG2, aleurain-like protease
2.86 fold | RHD3, Root hair defective 3 GTP-binding protein (RHD3)
3.32 fold | UBA1, ubiquitin-activating enzyme 1 (from UniProt P93028 1-1080)
3.14 fold | RD19A, Papain family cysteine protease
3.96 fold | CAM7, calmodulin 7 (from UniProt P59220 1-149)
3320 fold | CER3, FLP1, WAX2, YRE, Fatty acid hydroxylase superfamily
6.26 fold | Disease resistance protein (TIR-NBS class) (AT1G66090)
9.82 fold | FAD/NAD(P)-binding oxidoreductase family protein (AT5G22140)

Normalized Fold Change: SA vs Mock | Molecule
8.65 fold | AGD5, NEV, ARF-GAP domain 5
2.24 fold | S-adenosyl-L-methionine-dependent methyltransferases superfamily protein (AT1G55450)
40 fold | NAD(P)-binding Rossmann-fold superfamily protein (AT2G29320)
2.01 fold | GSTF6, glutathione S-transferase 6 (from UniProt P42760 1-208)
3.96 fold | PLP2, phospholipase A 2A
2270 fold | Leucine-rich repeat (LRR) family protein (AT5G45520)
3.61 fold | TOC86, translocon at the outer envelope membrane of chloroplasts 159
4.35 fold | AT3G53470
9.76 fold | TOC34, translocon at the outer envelope membrane of chloroplasts 34
2.26 fold | Transducin/WD40 repeat-like superfamily protein (AT3G15610)
3.15 fold | CTF2B, FAD/NAD(P)-binding oxidoreductase family protein
2100 fold | TPS10, trehalose phosphate synthase
4110 fold | OPR1, 12-oxophytodienoate reductase 1
16.7 fold | NPR2, NPR1-like protein 2 (from UniProt Q9SZI3 1-600)
2180 fold | RNR1, ribonucleotide reductase 1
42.1 fold | CAND1, cullin-associated and neddylation dissociated (from UniProt Q8L5Y6 2-1219)
2.04 fold | UBQ6, ubiquitin 6
1960 fold | RNA helicase family protein (AT1G27900)
3.34 fold | TTG1, Transducin/WD40 repeat-like superfamily protein (from UniProt Q9XGN1 1-341)
3.16 fold | Fes1A
14.6 fold | PAD3, Cytochrome P450 superfamily protein (from UniProt Q9LW27 1-490)
1620 fold | DDB1B, damaged DNA binding protein 1B (from UniProt O49552 1-1088)
2.75 fold | ATMDAR2, Pyridine nucleotide-disulphide oxidoreductase family protein
4.72 fold | HSP70, heat shock protein 70
2570 fold | HDA15, histone deacetylase 15 (protein, UniProt Q8GXJ1 1-552, looked up) Histone deacetylase 15: MVVETIERSCEGSKRRHVNGGDIAVPCSGEECSNGDINVAPGVSAKRARVSREMTFEDIYGADALLNDDDDEDDDCDWEPVQAPMEFVKWCCVNCTMSNPGDMVHCCICGEHKESGILRHGYLASPFFKDTGLIEVEEKYGGSSSATSSTAVGFDERMLLHSEFEVKAQPHPERPDRLRAIAASLATAGVFPGRCLPINAREITKQELQMVHTSEHVDAVDTTSQLLYSYFTSDTYANEYSARAARLAAGLCADLATDIFTGRVKNGFALVRPPGHHAGVRHAMGFCLHNNAAVAALVAQAAGAKKVLIVDWDVHHGNGTQEIFEQNKSVLYISLHRHEGGNFYPGTGAADEVGSNGGEGYCVNVPWSCGGVGDKDYIFAFQHVVLPIASAFSPDFVIISAGFDAARGDPLGCCDVTPAGYSRMTQMLGDLCGGKMLVILEGGYNLRSISASATAVIKVLLGENPENELPIATTPSVAGLQTVLDVLNIQLEFWPSLAISYSKLLSELEARLIENKKNQMKRKVVRVPTWWKWGRKKLLYNFLSARMISRSK
